# In US20030170704A1, “Substance capable of controlling the inclusion of exon 10 of the tau gene, and its therapeutic use against tauopathies” (Max-Planck-Gesellschaft Zur Foerd Der Wissen. E.V., priority 1999, published 2003):
# System: tau exon 10 inclusion (SV10 minigene)
# Assay: RT-PCR of tau exon 10 minigene SV10 1:1 co-transfected with splicing regulator cDNA plasmids in COS cells
# Assay type: cell-based, human
# Conditions: 1:1 co-transfection, FIG. 4
# Description: Plasmid DNA was purified by cesium chloride banding (Sambrook et al., 1989). The plasmids obtained in Examples 1 and 2 were introduced into cells by the lipofection method (LT1, Panvera).
# Plates (100 mm) that had reached ˜30% confluence were transfected with 10 μg of construct DNA or 5 μg of each plasmid for co-transfections. The medium was changed 16 h after transfection, without glycerol shock.
# Total RNA was isolated 48 h post-transfection by the TRIzol method (Life Technologies).
# For PCR analysis of RNA, 5 mg of total RNA from transiently transfected cells or 1 mg of polyA^+ RNA were reverse transcribed using random hexamer primers and 200 units of reverse transcriptase (RNAase H^− Superscript, Life Technologies), in a total volume of 20 ml for 1 h at 42° C. Part of this reaction mix (5 ml) was then diluted to a final volume of 50 ml, the concentrations of the buffer and dNTPs were adjusted for PCR and the mixture was amplified for 22 cycles. The conditions were: for the endogenous gene, denaturation at 94° C. for 1 min, annealing at 58° C. for 1 min, extension at 72° C. for 1 min; for the constructs, denaturation at 94° C. for 1 min, annealing at 65° C. for 1 min, extension at 72° C. for 1 min.
# The primer pair used for the endogenous exon 10 pattern was HT9SmS/1017HT (Table 2b). In the case of transfected cells, the primers INS1 and INS3 (Table 2b) were chosen to only amplify products arising from the constructs.
# The RT-PCR experiments were done twice with the polyA^+ RNAs and with total RNAs from three independent transfections, to ensure reproducibility. […] In FIGS. 1-4, the percent of the 10^+ isoform was calculated by scanning the bands from three independent transfections and measuring the areas under the curves (by the IPLab Gel program from Scanalytics).
# RT-PCR was performed in a manner as described in Example 4 (using primer pair: INS1/INS3), except that-mammalian cells were analyzed which had been 1:1 co-transfected with tau exon 10 containing minigene constructs (denoted SV 10) and with plasmids containing cDNA of various plicing regulators. […]
row,Molecule,effect on tau exon 10 inclusion (10+/10- isoform ratio by RT-PCR)
1,"U2AF65: constitutive splicing factor, expressed from cDNA under the CMV promoter (protein, UniProt P26368 2-475, looked up) Splicing factor U2AF 65 kDa …: SDFDEFERQLNENKQERDKENRHRKRSHSRSRSRDRKRRSRSRDRRNRDQRSASRDRRRRSKPLTRGAKEEHGGLIRSPRHEKKKKVRKYWDVPPPGFEHITPMQYKAMQAAGQIPATALLPTMTPDGLAVTPTPVPVVGSQMTRQARRLYVGNIPFGITEEAMMDFFNAQMRLGGLTQAPGNPVLAVQINQDKNFAFLEFRSVDETTQAMAFDGIIFQGQSLKIRRPHDYQPLPGMSENPSVYVPGVVSTVVPDSAHKLFIGGLPNYLNDDQVKELLTSFGPLKAFNLVKDSATGLSKGYAFCEYVDINVTDQAIAGLNGMQLGDKKLLVQRASVGAKNATLVSPPSTINQTPVTLQVPGLMSSQVQMGGHPTEVLCLMNMVLPEELLDDEEYEEIVEDVRDECSKYGLVKSIEIPRPVDGVEVPGCGKIFVEFTSVFDCQKAMQGLTGRKFANRVVVTKYCDPDSYHRRDFW",inhibited
2,"SRp75: serine/arginine-rich (SR) protein splicing regulator, expressed from cDNA under the CMV promoter (protein, UniProt Q08170 1-494, looked up) Serine/arginine-rich splicing …: MPRVYIGRLSYQARERDVERFFKGYGKILEVDLKNGYGFVEFDDLRDADDAVYELNGKDLCGERVIVEHARGPRRDGSYGSGRSGYGYRRSGRDKYGPPTRTEYRLIVENLSSRCSWQDLKDYMRQAGEVTYADAHKGRKNEGVIEFVSYSDMKRALEKLDGTEVNGRKIRLVEDKPGSRRRRSYSRSRSHSRSRSRSRHSRKSRSRSGSSKSSHSKSRSRSRSGSRSRSKSRSRSQSRSRSKKEKSRSPSKEKSRSRSHSAGKSRSKSKDQAEEKIQNNDNVGKPKSRSPSRHKSKSKSRSRSQERRVEEEKRGSVSRGRSQEKSLRQSRSRSRSKGGSRSRSRSRSKSKDKRKGRKRSREESRSRSRSRSKSERSRKRGSKRDSKAGSSKKKKKEDTDRSQSRSPSRSVSKEREHAKSESSQREGRGESENAGTNQETRSRSRSNSKSKPNLPSESRSRSKSASKTRSRSKSRSRSASRSPSRSRSRSHSRS",inhibited
3,"hSWAP: specific splicing regulator Suppressor of White Apricot, expressed from the SV40 early promoter (protein, UniProt Q12872 1-951, looked up) Splicing factor, suppressor …: MYGASGGRAKPERKSGAKEEAGPGGAGGGGSRVELLVFGYACKLFRDDERALAQEQGQHLIPWMGDHKILIDRYDGRGHLHDLSEYDAEYSTWNRDYQLSEEEARIEALCDEERYLALHTDLLEEEARQEEEYKRLSEALAEDGSYNAVGFTYGSDYYDPSEPTEEEEPSKQREKNEAENLEENEEPFVAPLGLSVPSDVELPPTAKMHAIIERTASFVCRQGAQFEIMLKAKQARNSQFDFLRFDHYLNPYYKFIQKAMKEGRYTVLAENKSDEKKKSGVSSDNEDDDDEEDGNYLHPSLFASKKCNRLEELMKPLKVVDPDHPLAALVRKAQADSSTPTPHNADGAPVQPSQVEYTADSTVAAMYYSYYMLPDGTYCLAPPPPGIDVTTYYSTLPAGVTVSNSPGVTTTAPPPPGTTPLPPPTTAETSSGATSTTTTTSALAPVAAIIPPPPDVQPVIDKLAEYVARNGLKFETSVRAKNDQRFEFLQPWHQYNAYYEFKKQFFLQKEGGDSMQAVSAPEEAPTDSAPEKPSDAGEDGAPEDAAEVGARAGSGGKKEASSSKTVPDGKLVKASFAPISFAIKAKENDLLPLEKNRVKLDDDSDDDEESKEGQESSSSAANTNPAVAPPCVVVEEKKPQLTQEELEAKQAKQKLEDRLAAAAREKLAQASKESKEKQLQAERKRKAALFLQTLKNPLPEAEAGKIEESPFSVEESSTTPCPLLTGGRPLPTLEVKPPDRPSSKSKDPPREEEKEKKKKKHKKRSRTRSRSPKYHSSSKSRSRSHSKAKHSLPSAYRTVRRSRSRSRSPRRRAHSPERRREERSVPTAYRVSRSPGASRKRTRSRSPHEKKKKRRSRSRTKSKARSQSVSPSKQAAPRPAAPAAHSAHSASVSPVESRGSSQERSRGVSQEKEAQISSAIVSSVQSKITQDLMAKVRAMLAASKNLQTSAS",inhibited
